From paper PMC3295762, “Gene Expression of the Tumour Suppressor LKB1 Is Mediated by Sp1, NF-Y and FOXO Transcription Factors”

What was measured:
GST-FOXO3 [1] = target: T1, GST-FOXO3 (UniProt O43524 1-673); assay: EMSA; EMSA: 10% glycerol, 12 mM HEPES pH 7.9, 4 mM Tris-HCl pH 7.9, 60 mM KCl, 1 mM DTT, 0.6 mg/ml BSA, 0.5 ug poly(dI-dC), 20 ul, 30 min at 25 C; supershift 1 h at 4 C; conditions: protein: commercial; tags: GST; label: 32P; blunt
GST-FOXO3 [2] = target: T1, GST-FOXO3; assay: competition; unlabeled excess vs N1 probe; EMSA: 10% glycerol, 12 mM HEPES pH 7.9, 4 mM Tris-HCl pH 7.9, 60 mM KCl, 1 mM DTT, 0.6 mg/ml BSA, 0.5 ug poly(dI-dC), 20 ul, 30 min at 25 C; supershift 1 h at 4 C; conditions: protein: commercial; tags: GST; blunt

T1 sequence (O43524 whole entry): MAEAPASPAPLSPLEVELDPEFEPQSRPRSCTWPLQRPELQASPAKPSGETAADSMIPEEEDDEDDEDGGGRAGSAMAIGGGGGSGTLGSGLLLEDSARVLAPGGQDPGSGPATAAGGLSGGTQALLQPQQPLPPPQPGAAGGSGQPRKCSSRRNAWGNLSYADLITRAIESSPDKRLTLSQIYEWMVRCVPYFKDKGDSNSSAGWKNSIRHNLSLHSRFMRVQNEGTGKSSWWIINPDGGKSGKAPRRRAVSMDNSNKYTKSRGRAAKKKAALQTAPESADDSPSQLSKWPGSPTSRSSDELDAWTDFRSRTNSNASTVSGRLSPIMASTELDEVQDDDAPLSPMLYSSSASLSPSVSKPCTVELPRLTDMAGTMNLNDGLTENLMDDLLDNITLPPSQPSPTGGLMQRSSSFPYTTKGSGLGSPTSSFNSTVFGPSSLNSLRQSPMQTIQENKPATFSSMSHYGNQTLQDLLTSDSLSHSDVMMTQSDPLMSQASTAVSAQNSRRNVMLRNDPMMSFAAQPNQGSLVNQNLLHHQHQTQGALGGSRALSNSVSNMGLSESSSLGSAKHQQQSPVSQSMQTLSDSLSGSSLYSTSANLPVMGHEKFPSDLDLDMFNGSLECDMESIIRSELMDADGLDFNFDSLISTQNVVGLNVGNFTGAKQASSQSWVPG

B1: LKB1 FOXO site oligo WT (dsDNA)
DNA 1: GGGGAGGGAGGTAAACAAGATGGCGGC
DNA 2: GCCGCCATCTTGTTTACCTCCCTCCCC
GST-FOXO3 [1]
  binding result: binds

B2: LKB1 FOXO site oligo mutant (dsDNA)
DNA 1: GGGGAGGGAGGTAGCCAAGATGGCGGC
DNA 2: GCCGCCATCTTGGCTACCTCCCTCCCC
GST-FOXO3 [2]
  binding result: no binding
